From publication PMC11740425 come the findings set out here.

Test [1] deals with TCR1 with the T30Q mutation in CDR-1A (human | mouse).
For test [2] the target is unchanged. Nature of the test: flow cytometry on cells.

As to “KRAS^G12D peptide presented by HLA-A*11:01 (KRAS^G12D tetramer) (from UniProt P61769 21-119; P01116 7-16) (peptide-MHC)”, the EC50 (functional avidity) of TCR Jurkat cells for KRAS^G12D peptide in test [1] came to 53 nM. In addition, the pMut-HLA binding positivity rate in test [2] came out at 60%.
